Experimental data published in patent US20250073202A1, “METHODS TO TREAT RENAL DISORDERS USING CALCIUM CHANNEL INHIBITORS” (The Trustees of Indiana University, priority 2018, published 2025).

B1: IL-17Rc: the IL17Rc receptor antagonist (R&D Systems), 150 ng/day i.p. (protein, UniProt Q8NAC3 21-538, looked up)
extracellular domain: LERLVGPQDATHCSPVSLEPWGDEERLRVQFLAQQSLSLAPVTAATARTALSGLSGADGRREERGRGKSWVCLSLGGSGNTEPQKKGLSCRLWDSDILCLPGDIVPAPGPVLAPTHLQTELVLRCQKETDCDLCLRVAVHLAVHGHWEEPEDEEKFGGAADSGVEEPRNASLQAQVVLSFQAYPTARCVLLEVQVPAALVQFGQSVGSVVYDCFEAALGSEVRIWSYTQPRYEKELNHTQQLPDCRGLEVWNSIPSCWALPWLNVSADGDNVHLVLNVSEEQHFGLSLYWNQVQGPPKPRWHKNLTGPQIITLNHTDLVPCLCIQVWPLEPDSVRTNICPFREDPRAHQNLWQAARLQLLTLQSWLLDAPCSLPAEAALCWRAPGGDPCQPLVPPLSWENVTVDKVLEFPLLKGHPNLCVQVNSSEKLQLQECLWADSLGPLKDDVLLLETRGPQDNRSLCALEPSGCTSLPSKASTRAARLGEYLLQDLQSGQCLQLWDDDLGALWACPMDKYIHKR
modifications: extracellular domain

Legend:
AKI-primed CD4+ cells [1] = assay: Fura-2 imaging of intracellular Ca2+ responses in AKI-primed CD4+ cells; format: cell-based, rat; details: superfusate with Ang II and elevated Na+; to levels similar to sham
Experimental: To assess Ca^2+ responses, fura2 imaging was performed. Briefly, isolated CD4+ T cells were loaded with fura-2AM (2.5 μM, Sigma, St. Louis, MO) for 45 min, washed, placed on poly-lysine (Sigma) coated coverslips and placed in a superfusion chamber with physiological salt solution (PSS) containing 2 mM Ca^2+. The chamber was mounted on an inverted epifluorescence microscope and signal measured with alternating excitation at 340 and 380 nm and emission at 510 nm using the InCa^2+-imaging system (Intracellular Imaging Systems, Cincinnati, OH). Data were acquired at 1.5 Hz and representative tracings were smoothed to the 10 nearest neighbor points using GraphPad Prism. For analysis, an increase in signal intensity of >1 standard deviation from baseline was considered a positive response. Frequency of responding cells was determined from an average 53±19 cells for each animal.

AKI-primed CD4+ cells [2] = assay: In vitro stimulation of AKI-primed kidney CD4+ cells with Ang II and elevated Na+, IL17 response; format: cell-based, rat; details: inhibitor 10 μM; Ang II 10^-7 M and 170 mM Na+; 12-14 hours; cells 7 days post I/R
Experimental: Total RNA was obtained from kidney using Trizol and the Zymogen RNA extraction kit and cDNA was prepared using MMLV enzyme (Invitrogen, Carlsburg, CA). Quantitative real time PCR (qPCR) using gene specific primers was performed using ABI 7500 (Applied Biosystems, Foster City, CA). mRNA values were calculated using 2^−ΔΔCt. Specific primers sequences for IL-6 (catalog #Rn01410330_m1), Kim-1 (#Rn00597703_m1) and IL17 (Rn01757168_m1) were purchased from ThermoFisher (Waltham, MA).
(§1) To evaluate protein expression of IL17 or Orai1, Orai2 or Orai3, cells were restimulated with PMA and ionomycin for 6 hours in the presence of monensin (Golgistop, 1 μg·ml, BD Biosciences) permeabilized with saponin ([…]) and stained with relevant antibody. Cells were scanned using flow cytometry (FACSCalibur, BD Biosciences, San Jose, CA) and scans were analyzed using Flowjo software (Tree Star, Ashland, OR).
CD4+T cells were isolated using the MACS Pan-T cell microbead separation kit (Miltenyl, Glabach, Germany). T cells were stimulated with plate bound anti-CD3 (precoated with 2 μg/mL) and soluble anti-CD28 (1 μg/mL). Cells (2.5×10^5 in 0.25 ml) were incubated 12-14 hours at 37° C. in RPMI medium supplemented with 10% FBS (Invitrogen) in a 48-well plate. Cells were challenged with Ang II (Sigma, 10^−7M) and raising the extracellular Na+ from 140 mM to 170 mM, using a 1 M NaCl solution. Calcium channel inhibitors 2ABP (10 μM, Sigma) AnCoA4 (10 μM, Millipore, Burlington, MA) and YM58483/BTP2 (10 μM) were included to evaluate effects on IL-17.

human blood CD4+ cells = assay: In vitro stimulation of human blood CD4+ cells from AKI patients with elevated sodium, IL17 response; format: cell-based; details: 170 mM Na+, overnight (~12 hours)
Experimental: For in vitro stimulation of human blood cells, primary T cells were isolated from fresh blood using Straight whole blood CD4 kit from Miltneyli Biotech (Miltenyli, San Diego, CA) according to manufactures' protocol. CD4+T cells were plated at a density of 1×10^6 cells/mL in RPMI medium supplemented with FBS. Cells were stimulated with human anti-CD3/CD28 dynabeads (Gibco; Catalogue no 11161D) along with labeled treatment overnight (˜12 hours). T cells were harvested and incubated with monensin for 6 hours, prior to staining for IL-17 (Table 4).

[3] = system: renal ischemia reperfusion injury; assay: Bilateral renal ischemia/reperfusion (I/R) injury in rats, 24 hours after reperfusion (Study II); format: in vivo, rat
Experimental: All studies used male Sprague-Dawley rats (250-300 g) that were purchased from Envigo (Indianapolis, IN). Rats were anesthetized with a cocktail of ketamine (100 mg·kg^−1, KetoVed, Vedco Inc, St. Joseph, MO) and xylazine (50 mg·kg^−1, AnaSed, Lloyd Inc, Shenandoah IA). Rats were placed on a heated surgical table to maintain body temperature. A midline incision and either unilateral (left) or bilateral renal ischemia (as indicated in Results) was induced by applying micro-aneurism clamps on the renal pedicles for a period of 40 min. Re-establishment of perfusion was verified by visual examination following removal of the clamps. Rats were provided post-operative analgesia using buprenorphine-SR (1 mg·kg^−1).
Rats were allowed to recover for various periods of time as described in the Results. In Study I, lymphocytes were studied in vitro after recovery for either 2 or 7 days following I/R or sham surgery for evaluation of function in vitro or for FACS analysis. In Study II, the effect of SOCE on kidney injury was studied with the inhibitor YM58483/BPT2 (N-[4-[3,5-Bis(trifluoromethyl)-1H-pyrazol-1-yl]phenyl]-4-methyl-1,2,3-thiadiazole-5-carboxamide; Tocris/Bio-Techne Minneapolis, MN). Rats were pretreated p.o. 2-3 hours prior to surgery with YM58483.BPT2 (1 mg·kg^−1) in sugar-free chocolate pudding following dilution in 100% EtOH, at, a dose previously shown to affect T cell activation in rats. In some experiments, rats were also treated with the IL17Rc (150 ng/day i.p; R&D Systems). In addition, one experiment utilized a model of rhabdomyolysis, induced by injection of 50% glycerol (10 ml/kg) into the hindlimb muscle of rats following 16 hours of water restriction.
To measure creatinine, tail blood was collected in heparin containing tubes and centrifuged to collect plasma. Plasma creatinine was measured using a Pointe Scientific Analyzer and Creatinine Assay reagents using methods outlined by the manufacturer (Pointe Scientific, Canton MI). Urine was collected for 24 hours by placing rats in metabolic cages and urine volume was determined gravimetrically. Urine creatinine was measured using a colorimetric assay adopted for microplate readers. Creatinine clearance was measured using UCr*V/PCr. […]
Freshly harvested kidneys were minced and digested in liberase (2 μg/ml. Roche, Indianapolis IN) for 15 min at 37° C. using Gentle MACs (Miltenyli, San Diego, CA). The digested tissue was filtered through a 100-μm mesh and washed with RPMI containing 10% fetal bovine serum (Invitrogen). Mononuclear cells were isolated using Percol (Sigma) density gradient centrifugation.
as §1
The effect of SOCE on early ischemic kidney injury was studied with the inhibitor YM58483/BPT2 (N-[4-[3,5-Bis(trifluoromethyl)-1 H-pyrazol-1-yl]phenyl]-4-methyl-1,2,3-thiadiazole-5-carboxamide; Tocris/Bio-Techne Minneapolis, MN). Rats were pretreated 2-3 hours prior to surgery, p.o. in sugar-free chocolate pudding following dilution in 100% EtOH, at 1 mg·kg^−1, a dose previously shown affect T cell activation in rats. To evaluate if SOCE influences Th17 cells in AKI, rats were fed YM58483/BPT2 approximately 2 hours prior to […] and reperfusion. […] YM58483/2BPT2 also attenuated the infiltration of total CD4+ and CD8+ T-cells, B-cells, and dendritic cells following I/R (FIGS. 3C, 3D, 3E, and 3F).

[4] = 24 hours following ischemia reperfusion, mean ± S.E.

| Molecule | percentage of Ca2+-responding cells (AKI-primed CD4+ cells [1]) | increase in IL17+ cells (IL17 protein, FACS) (AKI-primed CD4+ cells [2]) | increase of IL17 mRNA (AKI-primed CD4+ cells [2]) | IL17 response to elevated extracellular sodium (human blood CD4+ cells) | infiltration of total CD4+ T-cells in kidney (vs vehicle) ([3]; 24 hours following I/R) | kidney CD4+/IL17+ cells (vs vehicle) ([3]; 24 hours following I/R) | CD4+ renal lymphocyte content [3, 4] | CD4+/IL-17+ cells [3, 4] | CD8+ cells renal lymphocyte content [3, 4] | CD8+IL-17+ cells [3, 4] | Serum Creatinine [3, 4] | Total IL-17+ cells [3, 4] |
| --- | --- | --- | --- | --- | --- | --- | --- | --- | --- | --- | --- | --- |
| COc1cc2c(cc1-c1coc3c4c(ccc3c1=O)OC(C)(C)C=C4)OCO2 [AnCoA4] | significantly attenuated | completely blocked | completely blocked | inhibited | – | – | – | – | – | – | – | – |
| NCCOB(c1ccccc1)c1ccccc1 [2-ABP, 2-aminoethoxydiphenyl borate] | – | completely blocked | completely blocked | – | – | – | – | – | – | – | – | – |
| B1 | – | – | – | – | significantly reduced | significantly reduced | 19229 ± 3175 cells/gram | 1567 ± 294 cells/gram | 4356 ± 559 cells/gram | 251 ± 118 cells/gram | 3.96 ± 1.2 mg/dL | 8447 ± 1753 cells/gram |
